From the supplement of paper PMC12764529
± gives the half width of the 95% confidence interval.

Assays:
[1] = folding stability dG unfold (combined trypsin and chymotrypsin); higher = more stable
Protocol: (§1)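 Folding stability of de novo designed mini-proteins (<80 aa, no Cys; designed by TrROS, TrMRF, ProteinMPNN and the joint model) was measured by cDNA display proteolysis with trypsin and chymotrypsin. Each protease was used at 11 concentrations in a threefold dilution series plus a no-protease condition. K50 was inferred by Bayesian fitting of sequencing counts, and dG unfold was derived against a sequence-predicted unfolded-state K50 (Tsuboyama et al. method). Sequences shown include variable-length N-terminal GS-type padding (SAGGSAGG...) inside a display construct carrying a PA tag. Rows were kept only if the AF2 dimer inter-PAE was >15, to exclude likely homo-oligomers.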

[2] = folding stability dG unfold from chymotrypsin proteolysis; higher = more stable
Protocol: as §1

Sequence | folding stability dG unfold [1] [kcal/mol] | folding stability dG unfold [2] [kcal/mol]
SAGGSAGGSAGGMTTKYVITVEVPGENRTETIYLDVPPSRPEEAEALAKEISPNAKIERLSAGGSAGGSAGG [r11_250_JUSTAS] | -0.144 ± 0.29 | 0.187 ± 0.16
SAGGSALKVKSVHQNPDDNYYMITVTIPGPDKAPREIMFPSPEDLEDKLDNLPPGIESVEIHPMKPSAGGSA [r15_589_TrROS] | < -1 | -0.203 ± 0.19
SAGGTIKPGQPVRIRAEWYNGNKEWTHTHEFPLPENQTLDDVADEILEHLPPEHNKNFKVRIEIEPVSAGGS [r16_321_TrROS] | 0.373 ± 0.11 | 0.904 ± 0.1
SAGATESETFALPGGEEVTVTTTYTPLPGDALRTTVTTWTTTLGPSGPAVTTATTTTTYPPELAAAGASAGG [r19_63_JUSTAS] | -0.807 ± 0.24 | 0.0387 ± 0.14
SAGGSAGGSAGGMTVTVTVPPEKVEETIKKLGSKAKSVEREVLETPLGEKVAVVTVTLENSAGGSAGGSAGG [r7_904_JUSTAS] | 0.047 ± 0.093 | 0.647 ± 0.023
SAGGSAGGSAGGMAVVVDSPEEAEEVIEELERSFPALGAKVVVPRVQVGDKLVLPLGLELSAGGSAGGSAGG [r7_588_TrMRF] | -0.501 ± 0.15 | 0.0463 ± 0.068
SPAPPMRIDNIKPEKEDPNGDERKYRVYWQGPNGRPYHYEGPLEELEDMLDEDNIDPDNFWPGDEITIKVSA [r9_1078_TrROS] | 0.421 ± 0.31 | 0.869 ± 0.12
MPSVTLPVTLVLDTRRPDGRPLTPEQVRALAEAAVRELAEATGVDVEADVTVTPLGPEGRAVVDVVVTVRPS [r1_231_TrMRF] | 0.201 ± 0.14 | 0.746 ± 0.1
SAGGMTLDQLKENIKSVEVYPHPDGGYRMRVQIPQPNPDGKPKPREFNIPMPPNDPNMSADNVIDQILSAGG [r13_319_TrROS] | < -1 | -0.353 ± 0.27
SAGGSAGGSAGGKPTIKLKVTITNENGEKIEIEVEAESEEEALEALKALLPPGWKVEIESAGGSAGGSAGGS [r10_145_TrROS_Hall] | 4.21 ± 0.67 | 2.82 ± 0.2
SAGGSAGGSIEINPNGNFKIRFRGGNRPQTHTIPIKPGETLDTIKDTIRKHMGPNFPEVEIERSAGGSAGGS [r12_300_TrROS] | -0.152 ± 0.13 | 0.0855 ± 0.11
SAGGSAGGSAGGGPAKALITSPDGSKAEATVTVDTATGTVTLTVENASLPPDWKLELLGSAGGSAGGSAGGS [r10_306_TrMRF] | 0.0987 ± 0.23 | 0.768 ± 0.065
SAGGSAGGSAGGPDVTTSDSVSLERLPDDTIVLRRTTTVTPPTGPPVVTSTTTVLPPSTLSAGGSAGGSAGG [r17_312_JUSTAS] | < -1 | -0.319 ± 0.41
SAGGSAGGMLVPLDDTRVVPLPDGSYAVLVRPADGSELLREFDSLEDAVEWAEATGAGVADLPASAGGSAGG [r6_84_TrMRF] | -0.553 ± 0.34 | 0.0582 ± 0.18
SAGGSAGGSAGGSNPNKPKEFYRIEYTHGGKPHTHMFPPNEPIPPGPNMKVDPFPADDLSAGGSAGGSAGGS [r4_107_TrROS] | -0.688 ± 0.69 | -0.131 ± 0.23
SAGGSAGGSAGGAEELLENGRLRIEWPNGRTHTIDLDDGKIEPPPGFPPDNIRRVEIVPPSAGGSAGGSAGG [r7_566_TrROS] |  | 0.444 ± 0.24
SKKFQIYNPDEGQPFQIEVDPEDGKVTVEWPNGEEEEAPVKDIEIDPGHGWIKIKHPGKEVTIRIPPDMFSA [r9_325_TrROS] |  | 0.00862 ± 0.44
SAGGSAGGSAGGNIVDRLQERFPNFPPKSVDVKMNPNGNRSVDIKFDGPPEMRDALLELSAGGSAGGSAGGS [r10_1089_TrROS] |  | 0.128 ± 0.059
SAGGSAVKITVEEREIIVPPEEDPLAENNPGIVVKKKTVKYEKEMTPEEKEKFLKEIEEKTGIKIISAGGSA [r15_347_JUSTAS] |  | -0.162 ± 0.24
SAGEVEKITLTIVVEDPNMTLEEILKKALEALGLKEEDVEVKIVSIKEETLPDGRKLTVIEVEITVPKPSAG [r5_528_TrROS_Hall] |  | 3.43 ± 0.26
NYRVEIDDMELFPAPPGQEIRIPLKVEDDGQEHELEEIQVNPDDGYITMKVKIEPDGEPKEFTITIPIPPGS [r1_47_TrROS] |  | 0.158 ± 0.52

Sequence | folding stability dG unfold [1] [kcal/mol] | folding stability dG unfold [2] [kcal/mol]
SAGGMRFRVRLFRPGRWLPPREVEPGAEAALRELPADVPFVVIEFDDPRGRRRVFFRSPEELRRAVAASAGG [r13_299_TrMRF] |  | 0.379 ± 0.66
SAGGSAVTAEWILDHMRDMGMPEEDVKIDDVQLEREPDKVVIRIEITMRHPNDGKQRRMDMEIPLPSAGGSA [r15_863_TrROS] |  | -0.164 ± 0.34
SAMKVIVKIKIYDKNGKLVKEIEIPAEILEKDPEKLKELAEKLAEELKKKGYKVEIELVEVVPVEEEEESAG [r14_972_TrROS_Hall] |  | 4.5 ± 0.41
SAGGSAGGSAPGQKFPIKEVYWNDGRLAIKVEDNGEEQIIPVGAKIEDDDDGEIKIKLLPPPSAGGSAGGSA [r18_468_TrROS] | < -1 | 
SAGGANAKDVKRDGNNIQITFDGQILFKIQPPKPVPPVRVRHPDGKEHHAPLEDLKKENPDNWEIEPPSAGG [r13_802_TrROS] | < -1 | 
SAGKIRIVDSPDQLENAPPGDIVIHHRPSPETGRPRVRLAKYPDGKWEPLARMDSDGKIELPKELKEAISAG [r5_490_TrROS] | < -1 | 
SAGGSAGGSAGGSGVKTRAGSFPDRDYTITEDPVVPGIYTVKFPPEVTVTLPKSEIPPLSAGGSAGGSAGGS [r10_556_JUSTAS] | < -1 | 
SAGGSAGGSAGGPPIPIRIKLEHPDNGKKHTHEFPPGMSLKEVKNYMEKHPGYKIKDIEISAGGSAGGSAGG [r7_624_TrROS] | < -1 | 
SAGGSAGGSAGGSGSSVTTVTEEPGRRVVTRFVPETGEEEVLSTEEVPAPPLPLSPALLSAGGSAGGSAGGS [r4_21_JUSTAS] | < -1 | 
SAGGMRIPLKQIKDVNHQPPPGNGYPMVTVKVRDGGKPHTHTIPNNMNWEEAKRMVEEALDEGPIEIESAGG [r13_225_TrROS] | < -1 | 
SAGGSAGGSAGPKPVLLTIEVEAKPDEAEAVAKEIYEKEFPEAKDVTVETFPEKGTFRVTFGSAGGSAGGSA [r18_390_TrMRF] | < -1 | 
SAGGSAGGSAMEEYEIRVPDKPITIHRSPDGNYSLQYFDNKKTETIPADDLDDLPPGDLFRSAGGSAGGSAG [r3_256_TrROS] | < -1 | 
SAGGSAGGSASPVQRILARLPSGEPFEAVYDPSTGTIDVLGEGKPSTIPAGTPVEVLEVRLESAGGSAGGSA [r18_144_JUSTAS] | < -1 | 
SAGGSAGGSAGDLPPGKEIEIMMSTPEWADEFADNFPNAKIKIEPMPPKPKYDPETGKGYSAGGSAGGSAGG [r17_126_TrROS] | < -1 | 
SAGGSAMKYTLKDKDGKTITIEVEEHENPDGEPWYEVDIEHPNDGKEKKVYMPPNNPEEFAKKFLKSAGGSA [r15_92_TrROS] | < -1 | 
SAGGSAGGSAGKPYRIKIEFYPPGNGQPMEHTFPVKSPEEAVNNLEKSFPNYQIRVDVVESAGGSAGGSAGG [r17_428_TrROS] | < -1 | 
SAGGSAGGSAGSTVKITVKGKTITVPKGAKVKLKNGKTFKAGESLESLSPEEIVKVEKVPSAGGSAGGSAGG [r17_511_TrROS_Hall] | < -1 | 
SAGGKIGQEVDPGEPITIPIVKRDGDNPKKEKINFRLPPGMRIRPKDDNIMIRFPGNGQEQTIPLKDLSAGG [r13_275_TrROS] | < -1 | 
SAGGSAGGSAGGPEWKEIDIPFDTPEDAIDEAEDKLPPDDKIDVHNPDDGQPITFTVPRNSAGGSAGGSAGG [r7_877_TrROS] | < -1 | 
SAGGDWIPFRIKQYDPKDGKPKREWPIQYNPEDGMMQIRPPDGKKHEFPMPMQEILENLPPGFEIEPSAGGS [r16_543_TrROS] | < -1 | 
